Kd, koff and kon data for five molecules are collected here from article PMC10279549 (Blood Advances, 2023).

Common to all, as to assay: SPR
(Surface plasmon resonance follows binding to a sensor surface in real time, without labels.)

Experiment [1] concerns the target Glu-Gly-Arg-chloromethylketone active site-blocked activated protein C (EGR-APC).
In experiment [2] the target is Full-length recombinant factor V R506Q (FV Leiden) (human, UniProt P12259 29-2224, R506Q).
The target in experiment [3] is Full-length wild-type recombinant factor V (FV-WT) (human, UniProt P12259 29-2224).
Chain of Full-length wild-type recombinant factor V (FV-WT) (P12259 29-2224): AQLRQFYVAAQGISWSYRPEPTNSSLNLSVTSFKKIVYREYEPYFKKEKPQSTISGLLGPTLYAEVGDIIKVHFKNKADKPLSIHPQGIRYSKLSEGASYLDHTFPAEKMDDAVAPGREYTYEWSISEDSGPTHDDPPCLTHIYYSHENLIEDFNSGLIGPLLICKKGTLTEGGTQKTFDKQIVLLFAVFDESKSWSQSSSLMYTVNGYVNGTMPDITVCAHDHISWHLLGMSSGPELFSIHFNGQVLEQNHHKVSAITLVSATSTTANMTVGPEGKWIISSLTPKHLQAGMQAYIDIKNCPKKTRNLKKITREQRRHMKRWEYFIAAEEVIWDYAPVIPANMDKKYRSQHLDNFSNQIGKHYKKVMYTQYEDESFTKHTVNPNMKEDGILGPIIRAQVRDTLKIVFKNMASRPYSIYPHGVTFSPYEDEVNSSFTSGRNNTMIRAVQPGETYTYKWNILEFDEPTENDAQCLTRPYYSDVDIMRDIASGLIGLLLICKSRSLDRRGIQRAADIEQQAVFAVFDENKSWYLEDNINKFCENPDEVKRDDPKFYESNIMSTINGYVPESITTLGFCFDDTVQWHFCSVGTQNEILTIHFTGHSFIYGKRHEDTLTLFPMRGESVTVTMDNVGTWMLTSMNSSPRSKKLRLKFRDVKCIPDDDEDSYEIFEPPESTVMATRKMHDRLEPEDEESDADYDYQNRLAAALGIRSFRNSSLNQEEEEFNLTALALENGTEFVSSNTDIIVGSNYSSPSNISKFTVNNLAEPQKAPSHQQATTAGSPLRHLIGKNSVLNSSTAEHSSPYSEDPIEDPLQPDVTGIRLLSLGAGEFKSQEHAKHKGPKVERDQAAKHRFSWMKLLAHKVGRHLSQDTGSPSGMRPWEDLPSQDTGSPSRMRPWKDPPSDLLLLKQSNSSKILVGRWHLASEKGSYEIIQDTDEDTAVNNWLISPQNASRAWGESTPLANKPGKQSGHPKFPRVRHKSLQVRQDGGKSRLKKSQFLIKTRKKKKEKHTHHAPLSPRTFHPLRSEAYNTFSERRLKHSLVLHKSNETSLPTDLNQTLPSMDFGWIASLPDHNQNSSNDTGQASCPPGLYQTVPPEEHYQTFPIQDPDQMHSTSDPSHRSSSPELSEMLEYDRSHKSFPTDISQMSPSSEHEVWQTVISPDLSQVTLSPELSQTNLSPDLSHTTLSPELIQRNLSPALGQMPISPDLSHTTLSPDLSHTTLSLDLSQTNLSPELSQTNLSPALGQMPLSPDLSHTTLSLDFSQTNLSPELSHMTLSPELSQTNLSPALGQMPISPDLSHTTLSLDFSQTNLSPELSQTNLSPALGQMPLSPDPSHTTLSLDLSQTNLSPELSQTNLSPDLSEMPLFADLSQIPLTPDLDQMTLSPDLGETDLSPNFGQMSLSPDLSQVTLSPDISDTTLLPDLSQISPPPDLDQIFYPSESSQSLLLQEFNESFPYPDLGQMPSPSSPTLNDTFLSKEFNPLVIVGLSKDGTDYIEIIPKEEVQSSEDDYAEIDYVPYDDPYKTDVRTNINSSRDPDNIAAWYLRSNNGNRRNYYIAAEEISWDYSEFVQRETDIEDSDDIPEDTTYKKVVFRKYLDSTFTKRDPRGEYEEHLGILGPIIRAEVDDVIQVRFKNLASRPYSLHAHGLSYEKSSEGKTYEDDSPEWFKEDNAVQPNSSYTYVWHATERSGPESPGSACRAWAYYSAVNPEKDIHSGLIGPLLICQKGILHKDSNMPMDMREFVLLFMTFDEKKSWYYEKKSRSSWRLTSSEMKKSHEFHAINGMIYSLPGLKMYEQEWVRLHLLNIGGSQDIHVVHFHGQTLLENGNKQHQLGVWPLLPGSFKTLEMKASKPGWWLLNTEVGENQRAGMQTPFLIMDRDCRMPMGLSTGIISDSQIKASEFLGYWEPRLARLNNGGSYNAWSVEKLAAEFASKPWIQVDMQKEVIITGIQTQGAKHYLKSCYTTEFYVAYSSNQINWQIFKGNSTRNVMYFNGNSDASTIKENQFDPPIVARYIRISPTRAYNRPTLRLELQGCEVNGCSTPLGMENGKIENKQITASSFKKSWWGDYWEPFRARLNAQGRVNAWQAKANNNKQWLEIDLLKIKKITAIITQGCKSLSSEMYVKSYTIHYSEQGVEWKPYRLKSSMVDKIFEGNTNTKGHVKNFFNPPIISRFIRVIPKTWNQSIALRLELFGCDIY
Experiment [4] addresses Full-length recombinant factor V W1920R (FV Nara) (human, UniProt P12259 29-2224, W1920R).

Chain of Full-length recombinant factor V R506Q (FV Leiden) (P12259 29-2224 R534Q): as the sequence (P12259 29-2224) above, with R506Q counted along it
Chain of Full-length recombinant factor V W1920R (FV Nara) (P12259 29-2224 W1948R): as the sequence (P12259 29-2224) above, with W1920R counted along it

In the case of “Full-length recombinant factor V R506Q (FV Leiden) (from UniProt P12259 29-2224) (natural protein)”, in experiment [1], the Kd (in general, a measure of binding affinity in units of concentration) worked out at 19.1 nM; the koff (usually a measure of how fast the partners let go of each other) worked out at 0.00457 s⁻¹; the kon (usually the rate constant with which the complex forms) was found to be 239000 M⁻¹ s⁻¹.

“Full-length wild-type recombinant factor V (FV-WT) (from UniProt P12259 29-2224) (natural protein)”: in experiment [1], the Kd stood at 10.7 nM, the koff was 0.00359 s⁻¹ and the kon amounted to 337000 M⁻¹ s⁻¹.

In experiment [1], “Full-length recombinant factor V A2086D (FV Besançon) (from UniProt P12259 29-2224) (natural protein)” yielded a Kd of 20.3 nM, a koff of 0.00268 s⁻¹ and a kon of 132000 M⁻¹ s⁻¹.

Take “Full-length recombinant factor V W1920R (FV Nara) (from UniProt P12259 29-2224) (natural protein)”: in experiment [1], the Kd is 12.8 nM, the koff came out at 0.00433 s⁻¹ and the kon was 338000 M⁻¹ s⁻¹.

B1: Protein S (natural protein, UniProt P07225 42-676, looked up)
chain: ANSLLEETKQGNLERECIEELCNKEEAREVFENDPETDYFYPKYLVCLRSFQTGLFTAARQSTNAYPDLRSCVNAIPDQCSPLPCNEDGYMSCKDGKASFTCTCKPGWQGEKCEFDINECKDPSNINGGCSQICDNTPGSYHCSCKNGFVMLSNKKDCKDVDECSLKPSICGTAVCKNIPGDFECECPEGYRYNLKSKSCEDIDECSENMCAQLCVNYPGGYTCYCDGKKGFKLAQDQKSCEVVSVCLPLNLDTKYELLYLAEQFAGVVLYLKFRLPEISRFSAEFDFRTYDSEGVILYAESIDHSAWLLIALRGGKIEVQLKNEHTSKITTGGDVINNGLWNMVSVEELEHSISIKIAKEAVMDINKPGPLFKPENGLLETKVYFAGFPRKVESELIKPINPRLDGCIRSWNLMKQGASGIKEIIQEKQNKHCLVTVEKGSYYPGSGIAQFHIDYNNVSSAEGWHVNVTLNIRPSTGTGVMLALVSGNNTVPFAVSLVDSTSEKSQDILLSVENTVIYRIQALSLCSDQQSHLEFRVNRNNLELSTPLKIETISHEDLQRQLAVLDKAMKAKVATYLGGLPDVPFSATPVNAFYNGCMEVNINGVQLDLDEAISKHNDIRAHSCPSVWKKTKNS
Consider B1, for which, in experiment [2], the Kd amounted to 5.26 nM, the koff worked out at 0.00374 s⁻¹ and the kon is 711000 M⁻¹ s⁻¹. In experiment [3], the Kd was determined as 7.56 nM, the koff stood at 0.00393 s⁻¹ and the association rate constant (kon) came out at 520000 M⁻¹ s⁻¹. In experiment [4], the Kd is 26.2 nM, the koff was 0.00382 s⁻¹ and the kon was 145000 M⁻¹ s⁻¹.
